Test results from paper PMC12079668.

T1: zebrafish Cavin4a HR1 domain (residues 16-123) (zebrafish) (UniProt A1L260)
T1 sequence: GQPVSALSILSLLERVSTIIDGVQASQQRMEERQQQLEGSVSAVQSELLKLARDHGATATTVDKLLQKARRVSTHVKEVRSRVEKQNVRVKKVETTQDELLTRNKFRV

B1: mouse Cavin1 HR1 domain (residues 45–155), His-Ub-tagged, O54724 K115Q; R117Q; K118Q; K124Q; R127Q (protein)
chain: LIKSDQVNGVLVLSLLDKIIGAVDQIQLTQAQLEERQAEMEGAVQSIQGELSKLGKAHATTSNTVSKLLEQVQQVSVNVQTVQGSLERQAGQIKKLEVNEAELLRRRNFKV
B2: Nanobody NbB7 (VHH)
VHH: QVQLQESGGGLVQAGGSLRLSCAVSGIRVNVNAMYWYRQAPGKQRELVAIITTFGSTNYADSAKGRFTISRDNTKNTVYLQMDNLKPEDTAVYYCNAPQFTDRYWGQGTQVTVSS

Assays:
nanobody NbB7 = assay: ITC; conditions: chain shown with the change
[1] = target: T1, zebrafish Cavin4a HR1 domain (residues 16-123) (zebrafish); assay: ITC; NbA12 at 500 μM or NbB7 at 400 μM titrated into 30 μM (monomer) cavin HR1 domain or His-MBP full-length mC1; GF150 buffer (20 mM HEPES pH 7.4, 150 mM NaCl), 25°C; fitted with a 1:1 binding ratio

Binder | Kd (nanobody NbB7) | Kd [1]
B1 | 892 nM | 
B2 |  | 1490 nM
